# US20020012949A1, “Assay systems for leptin-enhancing agents” (priority 1997, published 2002)
# Target: T1, OB-R (Homo sapiens, UniProt P48357)
# T1 construct: The cytoplasmic domain and full-length human OB-R was cloned by PCR; expressed in transfected cells; host or cells: COS-7
# T1 sequence (P48357 22-1165): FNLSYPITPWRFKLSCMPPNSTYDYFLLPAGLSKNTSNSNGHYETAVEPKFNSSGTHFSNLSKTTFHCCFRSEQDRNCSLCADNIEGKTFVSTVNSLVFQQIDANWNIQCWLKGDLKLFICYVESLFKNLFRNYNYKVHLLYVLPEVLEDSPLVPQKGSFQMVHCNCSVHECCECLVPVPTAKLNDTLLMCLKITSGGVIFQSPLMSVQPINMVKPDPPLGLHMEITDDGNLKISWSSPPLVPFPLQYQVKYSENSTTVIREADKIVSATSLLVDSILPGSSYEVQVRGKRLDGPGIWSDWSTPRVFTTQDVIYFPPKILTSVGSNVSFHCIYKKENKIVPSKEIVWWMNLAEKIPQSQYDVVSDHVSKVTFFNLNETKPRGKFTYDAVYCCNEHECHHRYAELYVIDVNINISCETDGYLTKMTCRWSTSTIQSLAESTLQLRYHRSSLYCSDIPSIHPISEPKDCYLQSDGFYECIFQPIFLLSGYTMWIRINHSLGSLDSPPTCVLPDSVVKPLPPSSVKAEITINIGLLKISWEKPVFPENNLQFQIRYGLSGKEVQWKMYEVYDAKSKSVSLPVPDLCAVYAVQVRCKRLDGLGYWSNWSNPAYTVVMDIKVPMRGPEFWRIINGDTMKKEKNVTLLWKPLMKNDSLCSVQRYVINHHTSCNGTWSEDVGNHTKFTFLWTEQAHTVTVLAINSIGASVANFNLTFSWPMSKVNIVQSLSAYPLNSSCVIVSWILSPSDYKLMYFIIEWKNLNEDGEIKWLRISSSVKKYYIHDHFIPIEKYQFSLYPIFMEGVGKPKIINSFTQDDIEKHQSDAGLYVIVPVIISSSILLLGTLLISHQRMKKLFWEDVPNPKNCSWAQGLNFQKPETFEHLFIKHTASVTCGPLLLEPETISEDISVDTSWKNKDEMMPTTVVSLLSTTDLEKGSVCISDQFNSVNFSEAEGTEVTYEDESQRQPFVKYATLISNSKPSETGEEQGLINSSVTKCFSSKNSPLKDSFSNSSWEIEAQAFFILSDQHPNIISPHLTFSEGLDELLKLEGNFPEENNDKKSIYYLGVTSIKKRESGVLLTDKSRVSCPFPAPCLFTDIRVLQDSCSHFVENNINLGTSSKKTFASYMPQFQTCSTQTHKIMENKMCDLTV
# Test: Immunoprecipitation and western blotting of tyrosine phosphorylation, leptin-stimulated COS cells expressing OB-R
# Assay type: cell-based
# Settings: 100 ng/ml human leptin for 10 min
# Description: The cytoplasmic domain and full-length human OB-R was cloned by PCR using human fetal liver and adipocyte cDNA (Clontech) and cloned into the expression vectors pCMX and pMT21. Chimeric receptors were constructed by fusing the extracellular domain and transmembrane domain of TrkC (amino acids 1 to 458) to the cytoplasmic domain of OB-R (amino acids 865-1165). A triple myc epitope tag was added at the C-terminus of all OB-R constructs (18). Truncation and point mutant constructs were generated by PCR and the sequences of all constructs were verified. Expression constructs were transfected into COS-7 cells using lipofectamine (GIBCO-BRL); 36-48 hours after transfection, cells were starved for either 2 hour,s for chimeric receptors or overnight for full-length receptors prior to stimulation.
# Cells were stimulated with 50 ng/ml of human NT-3 for 15 min or 100 ng/ml of human leptin (R&D Systems) for 10 min. Cells were then lysed in a 1% Brij 96 buffer and receptor was immunoprecipitated with anti-myc antibody 9E10 (18) followed by protein G-sepharose (Pharmacia). Unbound lysate was then immunoprecipitated with anti-P-Tyr antibody (UBI, Lake Placid) or agarose-conjugated anti-SHP-2 antibody (Santa Cruz Biotechnology). […] Endogenous STAT3, SHP-2, Jak1 and Jak2 is being detected in all immunoblotting experiments. […]
substance,measurement,value
"leptin: the product of the obese gene, secreted by adipocytes; ligand of OB-R","tyrosine phosphorylation of receptor, STAT3 and SHP-2","results in phosphorylation of the receptor, STAT3 and SHP-2"
